Measurements published in the supplement of paper PMC9112550, “Optimization of the antimicrobial peptide Bac7 by deep mutational scanning” (BMC Biology, 2022).

Test system: Escherichia coli TOP10
Assay: shrunken log2 fold change of peptide-encoding DNA abundance (4.5 h post-induction vs induction); higher = less antimicrobial activity (less host growth inhibition)
Conditions: time post-induction: 4.5 h; library: site-saturation at positions 5, 18, 19, 20
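Further: peptides expressed intracellularly from a pBAD plasmid library in pooled LB shake-flask culture, induced with 0.3% L-arabinose, DNA abundance read by NGS, three biological replicates, DESeq2 with apeglm shrinkage.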

RRIRWRPPRLPRPRPRPHGSPRP and RRIRDRPPRLPRPRPRPQTNPRP are within 0.2 log units of each other in “shrunken log2 fold change” value: 0.173 for the first, 0.118 for the second.

Compared with RRIRCRPPRLPRPRPRPQKHPRP, RRIRWRPPRLPRPRPRPPRSPRP is higher in “shrunken log2 fold change” value: -0.0816 for the first, 0.733 for the second.

First: RRIRMRPPRLPRPRPRPPIHPRP
Second: RRIRIRPPRLPRPRPRPMCIPRP
The “shrunken log2 fold change” value of the first is higher: 0.166 for the first, -0.232 for the second.

Going from RRIRTRPPRLPRPRPRPVRFPRP to RRIRMRPPRLPRPRPRPPTRPRP, the “shrunken log2 fold change” value rises from 0.0687 to 1.25.

Going from RRIRKRPPRLPRPRPRPSTEPRP to RRIRLRPPRLPRPRPRPQVYPRP, the “shrunken log2 fold change” value falls from 0.136 to -0.11.

Going from RRIRNRPPRLPRPRPRPRLVPRP to RRIRHRPPRLPRPRPRPCFRPRP, the “shrunken log2 fold change” value falls from 0.114 to -0.346.

RRIRGRPPRLPRPRPRPNPCPRP and RRIRARPPRLPRPRPRPNKGPRP are within 0.2 log units of each other in “shrunken log2 fold change” value: 0.102 for the first, -0.0254 for the second.

RRIRKRPPRLPRPRPRPLETPRP and RRIRGRPPRLPRPRPRPVPIPRP are within 0.2 log units of each other in “shrunken log2 fold change” value: 0.361 for the first, 0.372 for the second.

RRIRGRPPRLPRPRPRPNKQPRP and RRIRQRPPRLPRPRPRPCGWPRP are within 0.2 log units of each other in “shrunken log2 fold change” value: 0.326 for the first, 0.502 for the second.

RRIRMRPPRLPRPRPRPWFSPRP and RRIRRRPPRLPRPRPRPNVDPRP are within 0.2 log units of each other in “shrunken log2 fold change” value: -0.0415 for the first, -0.125 for the second.

Compared with RRIRRRPPRLPRPRPRPMQDPRP, RRIRDRPPRLPRPRPRPFASPRP is lower in “shrunken log2 fold change” value: 0.452 for the first, -0.0205 for the second.

First: RRIRQRPPRLPRPRPRPLTFPRP
Second: RRIRGRPPRLPRPRPRPNFAPRP
The “shrunken log2 fold change” value of the first is lower: -0.0576 for the first, 0.569 for the second.

RRIRHRPPRLPRPRPRPEWQPRP and RRIRNRPPRLPRPRPRPVKRPRP are within 0.2 log units of each other in “shrunken log2 fold change” value: 0.145 for the first, 0.0962 for the second.

RRIRHRPPRLPRPRPRPHVMPRP and RRIRYRPPRLPRPRPRPRRNPRP are within 0.2 log units of each other in “shrunken log2 fold change” value: -0.185 for the first, -0.268 for the second.

RRIRWRPPRLPRPRPRPLDFPRP and RRIRTRPPRLPRPRPRPWTLPRP are within 0.2 log units of each other in “shrunken log2 fold change” value: 0.0518 for the first, -0.0728 for the second.

First: RRIRYRPPRLPRPRPRPYVKPRP
Second: RRIRCRPPRLPRPRPRPADRPRP
The “shrunken log2 fold change” value of the first is lower: -1.12 for the first, -0.0122 for the second.

Going from RRIRVRPPRLPRPRPRPDFYPRP to RRIRTRPPRLPRPRPRPTHGPRP, the “shrunken log2 fold change” value rises from -0.25 to 0.0213.

Compared with RRIRWRPPRLPRPRPRPTNDPRP, RRIRIRPPRLPRPRPRPCPAPRP is lower in “shrunken log2 fold change” value: 0.0116 for the first, -0.247 for the second.

Compared with RRIRWRPPRLPRPRPRPSLTPRP, RRIRTRPPRLPRPRPRPVECPRP is lower in “shrunken log2 fold change” value: 0.282 for the first, 0.0216 for the second.

First: RRIRWRPPRLPRPRPRPFSEPRP
Second: RRIRTRPPRLPRPRPRPARDPRP
The “shrunken log2 fold change” value of the first is lower: -0.186 for the first, 0.146 for the second.

Compared with RRIRWRPPRLPRPRPRPMHWPRP, RRIRCRPPRLPRPRPRPLYVPRP is lower in “shrunken log2 fold change” value: 0.194 for the first, -0.833 for the second.

Going from RRIRWRPPRLPRPRPRPHEYPRP to RRIRARPPRLPRPRPRPIADPRP, the “shrunken log2 fold change” value rises from -0.147 to 0.394.

Compared with RRIRRRPPRLPRPRPRPDSPPRP, RRIRHRPPRLPRPRPRPRLKPRP is lower in “shrunken log2 fold change” value: 0.28 for the first, -0.0285 for the second.

Going from RRIRNRPPRLPRPRPRPRPTPRP to RRIRMRPPRLPRPRPRPTIIPRP, the “shrunken log2 fold change” value falls from 0.658 to -0.374.

Compared with RRIRLRPPRLPRPRPRPSMHPRP, RRIRHRPPRLPRPRPRPNQAPRP is higher in “shrunken log2 fold change” value: -0.489 for the first, 0.033 for the second.

Going from RRIRIRPPRLPRPRPRPSWTPRP to RRIRARPPRLPRPRPRPLGCPRP, the “shrunken log2 fold change” value rises from -0.237 to 0.904.

Compared with RRIRRRPPRLPRPRPRPYMLPRP, RRIRYRPPRLPRPRPRPPSWPRP is higher in “shrunken log2 fold change” value: -0.685 for the first, 0.133 for the second.

Going from RRIRKRPPRLPRPRPRPHAWPRP to RRIRYRPPRLPRPRPRPDDVPRP, the “shrunken log2 fold change” value falls from 0.897 to 0.0235.

RRIRFRPPRLPRPRPRPALNPRP and RRIRRRPPRLPRPRPRPSSDPRP are within 0.2 log units of each other in “shrunken log2 fold change” value: 0.0855 for the first, 0.0273 for the second.

Compared with RRIRCRPPRLPRPRPRPPPSPRP, RRIRMRPPRLPRPRPRPWPTPRP is lower in “shrunken log2 fold change” value: 1.61 for the first, 0.675 for the second.

RRIRYRPPRLPRPRPRPDCDPRP and RRIRKRPPRLPRPRPRPNYAPRP are within 0.2 log units of each other in “shrunken log2 fold change” value: -0.124 for the first, -0.0324 for the second.

Going from RRIRWRPPRLPRPRPRPYQAPRP to RRIRTRPPRLPRPRPRPKLWPRP, the “shrunken log2 fold change” value rises from -0.0526 to 0.401.

RRIRWRPPRLPRPRPRPFSQPRP and RRIRTRPPRLPRPRPRPFKGPRP are within 0.2 log units of each other in “shrunken log2 fold change” value: -0.0772 for the first, -0.264 for the second.

RRIRKRPPRLPRPRPRPVWFPRP and RRIRVRPPRLPRPRPRPDLHPRP are within 0.2 log units of each other in “shrunken log2 fold change” value: 0.142 for the first, -0.0023 for the second.

Going from RRIRSRPPRLPRPRPRPPWPPRP to RRIRGRPPRLPRPRPRPAEYPRP, the “shrunken log2 fold change” value falls from 0.51 to -0.187.

RRIRKRPPRLPRPRPRPAAIPRP and RRIRNRPPRLPRPRPRPTGAPRP are within 0.2 log units of each other in “shrunken log2 fold change” value: 0.255 for the first, 0.256 for the second.

RRIRSRPPRLPRPRPRPADFPRP and RRIRYRPPRLPRPRPRPQSRPRP are within 0.2 log units of each other in “shrunken log2 fold change” value: -0.0669 for the first, -0.17 for the second.

RRIRPRPPRLPRPRPRPYELPRP and RRIRIRPPRLPRPRPRPACAPRP are within 0.2 log units of each other in “shrunken log2 fold change” value: -0.0423 for the first, -0.149 for the second.

Compared with RRIRERPPRLPRPRPRPQDVPRP, RRIRGRPPRLPRPRPRPWPGPRP is higher in “shrunken log2 fold change” value: -0.177 for the first, 0.265 for the second.

Going from RRIRTRPPRLPRPRPRPEDFPRP to RRIRFRPPRLPRPRPRPAIEPRP, the “shrunken log2 fold change” value rises from -0.00101 to 0.519.

RRIRRRPPRLPRPRPRPDGAPRP and RRIRLRPPRLPRPRPRPPPIPRP are within 0.2 log units of each other in “shrunken log2 fold change” value: 0.766 for the first, 0.935 for the second.

RRIRKRPPRLPRPRPRPSHAPRP and RRIRRRPPRLPRPRPRPWWHPRP are within 0.2 log units of each other in “shrunken log2 fold change” value: 0.155 for the first, 0.0484 for the second.

RRIRGRPPRLPRPRPRPLNRPRP and RRIRCRPPRLPRPRPRPVATPRP are within 0.2 log units of each other in “shrunken log2 fold change” value: 0.33 for the first, 0.443 for the second.

Going from RRIRSRPPRLPRPRPRPIVAPRP to RRIRCRPPRLPRPRPRPQNIPRP, the “shrunken log2 fold change” value falls from 0.0103 to -0.237.

First: RRIRSRPPRLPRPRPRPMPAPRP
Second: RRIRKRPPRLPRPRPRPYIHPRP
The “shrunken log2 fold change” value of the first is higher: 0.26 for the first, -0.227 for the second.

RRIRPRPPRLPRPRPRPWGEPRP and RRIRPRPPRLPRPRPRPFHWPRP are within 0.2 log units of each other in “shrunken log2 fold change” value: 0.113 for the first, 0.0105 for the second.

Compared with RRIRFRPPRLPRPRPRPHISPRP, RRIRQRPPRLPRPRPRPPQSPRP is higher in “shrunken log2 fold change” value: -0.419 for the first, 0.671 for the second.

RRIRTRPPRLPRPRPRPVKMPRP and RRIRSRPPRLPRPRPRPWHIPRP are within 0.2 log units of each other in “shrunken log2 fold change” value: -0.0502 for the first, -0.0156 for the second.

First: RRIRIRPPRLPRPRPRPWHSPRP
Second: RRIRKRPPRLPRPRPRPKFCPRP
The “shrunken log2 fold change” value of the first is lower: -0.383 for the first, 0.0649 for the second.

Compared with RRIRYRPPRLPRPRPRPIHNPRP, RRIRSRPPRLPRPRPRPRNHPRP is higher in “shrunken log2 fold change” value: -0.438 for the first, -0.0799 for the second.

First: RRIRDRPPRLPRPRPRPRQPPRP
Second: RRIRFRPPRLPRPRPRPQFIPRP
The “shrunken log2 fold change” value of the first is higher: 0.252 for the first, -0.141 for the second.

RRIRPRPPRLPRPRPRPMISPRP and RRIRHRPPRLPRPRPRPEFVPRP are within 0.2 log units of each other in “shrunken log2 fold change” value: -0.098 for the first, 0.02 for the second.

Compared with RRIRVRPPRLPRPRPRPVNKPRP, RRIRERPPRLPRPRPRPAWPPRP is higher in “shrunken log2 fold change” value: -0.186 for the first, 0.359 for the second.

Going from RRIRFRPPRLPRPRPRPIYKPRP to RRIRPRPPRLPRPRPRPDYMPRP, the “shrunken log2 fold change” value rises from -0.836 to -0.334.

In the case of RRIRCRPPRLPRPRPRPAHHPRP, the “shrunken log2 fold change” value is reported as -0.222.
